Experimental data taken from PMC4113749 (Toxins, 2014).

Biological target: TcdA^(1–542 D285/287N)-EGFP (Clostridium difficile (strain VPI 10463), UniProt P16154 1-542)
Assay: MST
Details: both partners purified

B1: isolated TcdA CROPs (TcdA^1875–2710) (domain or fragment)
chain: YKIINGKHFYFNNDGVMQLGVFKGPDGFEYFAPANTQNNNIEGQAIVYQSKFLTLNGKKYYFDNNSKAVTGWRIINNEKYYFNPNNAIAAVGLQVIDNNKYYFNPDTAIISKGWQTVNGSRYYFDTDTAIAFNGYKTIDGKHFYFDSDCVVKIGVFSTSNGFEYFAPANTYNNNIEGQAIVYQSKFLTLNGKKYYFDNNSKAVTGLQTIDSKKYYFNTNTAEAATGWQTIDGKKYYFNTNTAEAATGWQTIDGKKYYFNTNTAIASTGYTIINGKHFYFNTDGIMQIGVFKGPNGFEYFAPANTDANNIEGQAILYQNEFLTLNGKKYYFGSDSKAVTGWRIINNKKYYFNPNNAIAAIHLCTINNDKYYFSYDGILQNGYITIERNNFYFDANNESKMVTGVFKGPNGFEYFAPANTHNNNIEGQAIVYQNKFLTLNGKKYYFDNDSKAVTGWQTIDGKKYYFNLNTAEAATGWQTIDGKKYYFNLNTAEAATGWQTIDGKKYYFNTNTFIASTGYTSINGKHFYFNTDGIMQIGVFKGPNGFEYFAPANTDANNIEGQAILYQNKFLTLNGKKYYFGSDSKAVTGLRTIDGKKYYFNTNTAVAVTGWQTINGKKYYFNTNTSIASTGYTIISGKHFYFNTDGIMQIGVFKGPDGFEYFAPANTDANNIEGQAIRYQNRFLYLHDNIYYFGNNSKAATGWVTIDGNRYYFEPNTAMGANGYKTIDNKNFYFRNGLPQIGVFKGSNGFEYFAPANTDANNIEGQAIRYQNRFLHLLGKIYYFGNNSKAVTGWQTINGKVYYFMPDTAMAAAGGLFEIDGVIYFFGVDGVKAPGIYG
Question: How did the Kd turn out when B1 was run?
Answer: Its Kd is 2960 ± 180 nM.
